Residue numbers refer to the chain shown, from its start.
Experiments:
[1] = system: T1, SaMhqR A63E A63E (Staphylococcus aureus COL), ORF:0a4449b0; assay: EMSA; conditions: EMSA: 15 ng probe, 0.01-1.0 uM protein, 60 min; for MHQ tests protein diluted to 0.6 uM in 10 mM Tris-HCl pH 7.5 and treated with 0.5-100 mM MHQ for 30 min at …
T1 sequence: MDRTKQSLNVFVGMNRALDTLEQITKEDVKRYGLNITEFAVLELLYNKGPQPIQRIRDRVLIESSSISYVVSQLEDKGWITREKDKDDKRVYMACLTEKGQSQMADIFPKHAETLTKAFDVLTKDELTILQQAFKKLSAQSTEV

[2] = system: T2, SaMhqR D88A D88A (Staphylococcus aureus COL), ORF:0a4449b0; assay: EMSA; conditions: EMSA: 15 ng probe, 0.01-1.0 uM protein, 60 min; for MHQ tests protein diluted to 0.6 uM in 10 mM Tris-HCl pH 7.5 and treated with 0.5-100 mM MHQ for 30 min at …
T2 sequence: T1 sequence with E63A, D88A

[3] = system: T3, SaMhqR E38A E38A (Staphylococcus aureus COL), ORF:0a4449b0; assay: EMSA; conditions: EMSA: 15 ng probe, 0.01-1.0 uM protein, 60 min; for MHQ tests protein diluted to 0.6 uM in 10 mM Tris-HCl pH 7.5 and treated with 0.5-100 mM MHQ for 30 min at …
T3 sequence: T1 sequence with E38A, E63A

[4] = system: T4, SaMhqR E43A E43A (Staphylococcus aureus COL), ORF:0a4449b0; assay: EMSA; conditions: EMSA: 15 ng probe, 0.01-1.0 uM protein, 60 min; for MHQ tests protein diluted to 0.6 uM in 10 mM Tris-HCl pH 7.5 and treated with 0.5-100 mM MHQ for 30 min at …
T4 sequence: T1 sequence with E43A, E63A

[5] = system: T5, SaMhqR E43A,H111A E43A;H111A (Staphylococcus aureus COL), ORF:0a4449b0; assay: EMSA; conditions: EMSA: 15 ng probe, 0.01-1.0 uM protein, 60 min; for MHQ tests protein diluted to 0.6 uM in 10 mM Tris-HCl pH 7.5 and treated with 0.5-100 mM MHQ for 30 min at …
T5 sequence: T1 sequence with E43A, E63A, H111A

[6] = system: T6, SaMhqR F11A F11A (Staphylococcus aureus COL), ORF:0a4449b0; assay: EMSA; conditions: EMSA: 15 ng probe, 0.01-1.0 uM protein, 60 min; for MHQ tests protein diluted to 0.6 uM in 10 mM Tris-HCl pH 7.5 and treated with 0.5-100 mM MHQ for 30 min at …
T6 sequence: T1 sequence with F11A, E63A

[7] = system: T7, SaMhqR F39A F39A (Staphylococcus aureus COL), ORF:0a4449b0; assay: EMSA; conditions: EMSA: 15 ng probe, 0.01-1.0 uM protein, 60 min; for MHQ tests protein diluted to 0.6 uM in 10 mM Tris-HCl pH 7.5 and treated with 0.5-100 mM MHQ for 30 min at …
T7 sequence: T1 sequence with F39A, E63A

[8] = system: T8, SaMhqR H111A H111A (Staphylococcus aureus COL), ORF:0a4449b0; assay: EMSA; conditions: EMSA: 15 ng probe, 0.01-1.0 uM protein, 60 min; for MHQ tests protein diluted to 0.6 uM in 10 mM Tris-HCl pH 7.5 and treated with 0.5-100 mM MHQ for 30 min at …
T8 sequence: T1 sequence with E63A, H111A

[9] = system: T9, SaMhqR K89A K89A (Staphylococcus aureus COL), ORF:0a4449b0; assay: EMSA; conditions: EMSA: 15 ng probe, 0.01-1.0 uM protein, 60 min; for MHQ tests protein diluted to 0.6 uM in 10 mM Tris-HCl pH 7.5 and treated with 0.5-100 mM MHQ for 30 min at …
T9 sequence: T1 sequence with E63A, K89A

[10] = system: T10, SaMhqR Q54A Q54A (Staphylococcus aureus COL), ORF:0a4449b0; assay: EMSA; conditions: EMSA: 15 ng probe, 0.01-1.0 uM protein, 60 min; for MHQ tests protein diluted to 0.6 uM in 10 mM Tris-HCl pH 7.5 and treated with 0.5-100 mM MHQ for 30 min at …
T10 sequence: T1 sequence with Q54A, E63A

[11] = system: T11, SaMhqR Q73A Q73A (Staphylococcus aureus COL), ORF:0a4449b0; assay: EMSA; conditions: EMSA: 15 ng probe, 0.01-1.0 uM protein, 60 min; for MHQ tests protein diluted to 0.6 uM in 10 mM Tris-HCl pH 7.5 and treated with 0.5-100 mM MHQ for 30 min at …
T11 sequence: T1 sequence with E63A, Q73A

[12] = system: T12, SaMhqR R90A R90A (Staphylococcus aureus COL), ORF:0a4449b0; assay: EMSA; conditions: EMSA: 15 ng probe, 0.01-1.0 uM protein, 60 min; for MHQ tests protein diluted to 0.6 uM in 10 mM Tris-HCl pH 7.5 and treated with 0.5-100 mM MHQ for 30 min at …
T12 sequence: T1 sequence with E63A, R90A

[13] = system: T13, SaMhqR S64A S64A (Staphylococcus aureus COL), ORF:0a4449b0; assay: EMSA; conditions: EMSA: 15 ng probe, 0.01-1.0 uM protein, 60 min; for MHQ tests protein diluted to 0.6 uM in 10 mM Tris-HCl pH 7.5 and treated with 0.5-100 mM MHQ for 30 min at …
T13 sequence: T1 sequence with E63A, S64A

[14] = system: T14, SaMhqR S65A S65A (Staphylococcus aureus COL), ORF:0a4449b0; assay: EMSA; conditions: EMSA: 15 ng probe, 0.01-1.0 uM protein, 60 min; for MHQ tests protein diluted to 0.6 uM in 10 mM Tris-HCl pH 7.5 and treated with 0.5-100 mM MHQ for 30 min at …
T14 sequence: T1 sequence with E63A, S65A

[15] = system: T15, SaMhqR S66A S66A (Staphylococcus aureus COL), ORF:0a4449b0; assay: EMSA; conditions: EMSA: 15 ng probe, 0.01-1.0 uM protein, 60 min; for MHQ tests protein diluted to 0.6 uM in 10 mM Tris-HCl pH 7.5 and treated with 0.5-100 mM MHQ for 30 min at …
T15 sequence: T1 sequence with E63A, S66A

[16] = system: T16, SaMhqR S68A S68A (Staphylococcus aureus COL), ORF:0a4449b0; assay: EMSA; conditions: EMSA: 15 ng probe, 0.01-1.0 uM protein, 60 min; for MHQ tests protein diluted to 0.6 uM in 10 mM Tris-HCl pH 7.5 and treated with 0.5-100 mM MHQ for 30 min at …
T16 sequence: T1 sequence with E63A, S68A

[17] = system: T17, SaMhqR V70A V70A (Staphylococcus aureus COL), ORF:0a4449b0; assay: EMSA; conditions: EMSA: 15 ng probe, 0.01-1.0 uM protein, 60 min; for MHQ tests protein diluted to 0.6 uM in 10 mM Tris-HCl pH 7.5 and treated with 0.5-100 mM MHQ for 30 min at …
T17 sequence: T1 sequence with E63A, V70A

[18] = system: T18, SaMhqR V91A V91A (Staphylococcus aureus COL), ORF:0a4449b0; assay: EMSA; conditions: EMSA: 15 ng probe, 0.01-1.0 uM protein, 60 min; for MHQ tests protein diluted to 0.6 uM in 10 mM Tris-HCl pH 7.5 and treated with 0.5-100 mM MHQ for 30 min at …
T18 sequence: T1 sequence with E63A, V91A

[19] = system: T19, SaMhqR WT (Staphylococcus aureus COL), ORF:0a4449b0; assay: EMSA; conditions: EMSA: 15 ng probe, 0.01-1.0 uM protein, 60 min; for MHQ tests protein diluted to 0.6 uM in 10 mM Tris-HCl pH 7.5 and treated with 0.5-100 mM MHQ for 30 min at …
T19 sequence: T1 sequence with E63A

[20] = system: T20, SaMhqR Y69A Y69A (Staphylococcus aureus COL), ORF:0a4449b0; assay: EMSA; conditions: EMSA: 15 ng probe, 0.01-1.0 uM protein, 60 min; for MHQ tests protein diluted to 0.6 uM in 10 mM Tris-HCl pH 7.5 and treated with 0.5-100 mM MHQ for 30 min at …
T20 sequence: T1 sequence with E63A, Y69A

[21] = system: T21, SaMhqR Y92A Y92A (Staphylococcus aureus COL), ORF:0a4449b0; assay: EMSA; conditions: EMSA: 15 ng probe, 0.01-1.0 uM protein, 60 min; for MHQ tests protein diluted to 0.6 uM in 10 mM Tris-HCl pH 7.5 and treated with 0.5-100 mM MHQ for 30 min at …
T21 sequence: T1 sequence with E63A, Y92A

[22] = target: MarR-type repressor MhqR of Staphylococcus aureus (SaMhqR), wild type, C-terminally His-tagged (Staphylococcus aureus (COL)); assay: SEC-MALS; Superdex 200 Increase 10/300, HEPES buffer (20 mM HEPES, 20 mM MgCl2, 200 mM NaCl, 20 mM KCl)

What does the source list for “ACATATCAACTCCTATCATGATTGATTATAGTATTTCCCTATTCTATTTTAACTTAAACGAAGTCAAAGGTGCATGACAGTCATGTGACGACATTGCCACATCTATGTAGTCGTTTTTATTAAGCACAGTTTGAAATGAAGATGAAAACACGTATCTTGACATTAAATCTATTCAGTTATATAATTTATCTCGAAATCGAAATAAAATAAAAAAGTTGGTGATCATATGGATCGAACG (double strand) [mhqRED promoter probe]”?
binding [1]: binds more weakly; binding [2]: binds more weakly; binding [3]: binds more weakly; binding [4]: binds; binding [5]: no binding; binding [6]: binds more weakly; binding [7]: binds more weakly; binding [8]: binds more weakly; binding [9]: binds more weakly; binding [10]: binds more weakly; binding [11]: binds more weakly; binding [12]: binds more weakly; binding [13]: binds; binding [14]: binds more weakly; binding [15]: binds more weakly; binding [16]: binds more weakly; binding [17]: binds more weakly; binding [18]: binds more weakly; binding [19]: binds; binding [20]: binds more weakly; binding [21]: binds more weakly

For “MarR-type repressor MhqR of Staphylococcus aureus (SaMhqR), wild type, C-terminally His-tagged (natural protein)”, which stoichiometry N [22] is on record?
The stoichiometry N was 2.
